According to paper PMC4597091:

Molecular target: PepT2^ECD-S427C, labelled for MST (Rattus norvegicus) (UniProt Q63424)
Assay: MST; 1.5 μM labelled ECD (S437C or S427C, blue maleimide) with 0.03–1,000 μM ligand; 22°C; 25 mM MES pH 6.5, 100 mM NaCl

Kd: 6 µM
Substance: trypsin (intestinal protease) (enzyme)
